Results taken from paper PMC9600919.

Target: N-terminally 3× FLAG-tagged IglD from Francisella novicida (Francisella novicida) (UniProt Q7X3J2)
Assay: cryo-EM structure

“N-terminally 3× FLAG-tagged IglD from Francisella novicida (from UniProt Q7X3J2 1-398) (natural protein)” gave a stoichiometry N of 3.
